These results are taken from patent US7638269B2, “Viral capsid assembly intermediates and methods of production” (priority 1997, dated 2009).

This test has as its system 750S immature HIV-1 capsids. Briefly: HP68 immunodepletion-reconstitution of cell-free HIV-1 capsid assembly. In kind it is biochemical. Here is the method: WG extract (150 μl) was immunodepleted for 45 min at 4° C. with 100 μl beads coupled to antibody against WGHP68. Cell-free reactions (15 μl) were programmed (Lingappa et al., J. Cell Biol. 136:567-81 (1997)) using non-depleted WG or depleted WG. To some reactions containing depleted WG, purified WGHP68-GST or HuHP68-GST fusion protein or GST alone was added (2 μl of approx. 20 ng/μl) at the start of the reaction. After 3 hours at 26° C., NP40 was added to a final concentration of 1% and reactions underwent velocity sedimentation (5 ml, 15-60% sucrose gradients, Beckman MLS55 rotor: 45,000 rpm, 45 min). Thirty fractions, collected using a fractionator, were analyzed by SDS-PAGE and AR, followed by densitometry of Gag in each lane. For Proteinase K digestion, aliquots of fractions from the 500S and 750S regions of the gradient were collected and subjected to a 10 min incubation at RT with either no Proteinase K or 0.1 μg/ml Proteinase K. Digestion was terminated by adding SDS and freezing. Samples were analyzed by SDS-PAGE and AR. Graphs show average of three independent experiments (+/−SEM).
To generate purified HP68, WGHP68 and HuHP68 were subcloned into a pGEX vector (Pharmacia), to encode fusion proteins containing GST at the N-terminus. […] Concentration of fusion protein and GST in eluate was determined using the Coomassie Plus protein assay (Pierce). […]

B1: WGHP68-GST: fusion protein of wheat germ HP68 with GST at the N-terminus (protein)
chain: MADRLTRIAIVSEDKCKPKKCRQECKKSCPVVKTGKLCIEVSPVAKLAFISEELCIGCGICVKKCPFDAIEIINLPKDLEKDTTHRYGPNTFKLHRLPVPRPGQVLGLVGTNGIGKSTALKVLAGKLKPNLGRFKNPPDWQEILTYFRGSELQNYFTRILEDNLKAIIKPQYVDHIPKAVQGNVGQVLEQKDERDMKNELCVDLELNQVIDRNVGDLSGGELQRFAIAVVAVQSAEIYMFDEPSSYLDVKQRLKAARVIRSLLRSNSYVIVVEHDLSVLDYLSDFICCLYGKPGAYGVVTLPFSVREGINIFLAGFVPTENLRFRDESLTFKIAETQESAEEVATYQRYKYPTMSKTQGNFKLSVVEGEFTDSQIVVMLGENGTGKTTFIRMLAGLLKPDTMEGTEVEIPEFNVSYKPQKISPKFQHPVRHLLHSKIRDSYTHPQFVSDVMKPLQIEQLMDQEVINLSGGELQRVALCLCLGKPADIYLIDEPSAYLDSEQRIVASKVIKRFILHAKKTAFIVEHDFIMATYLADKVIVYEGLASIDCTANAPQSLVSGMNKFLSHLDITFRRDPTNYRPRINKLESTKDREQKNAGSYYYLDD
modifications: left off: a dimerising Fc or GST
notes: fusion protein of wheat germ HP68 with GST at the N-terminus
Regarding B1, the “total amount of radiolabeled Gag synthesized” value (added to HP68 immunodepleted WG extract) is listed as “had no effect”. The “increase in the amount of 750S capsid” value (added to HP68 immunodepleted WG extract programmed with HIV-1 Gag transcript) stood at 3 fold.
